T1: human FAP (Homo sapiens, UniProt Q12884)
T1 sequence (Q12884 1-760): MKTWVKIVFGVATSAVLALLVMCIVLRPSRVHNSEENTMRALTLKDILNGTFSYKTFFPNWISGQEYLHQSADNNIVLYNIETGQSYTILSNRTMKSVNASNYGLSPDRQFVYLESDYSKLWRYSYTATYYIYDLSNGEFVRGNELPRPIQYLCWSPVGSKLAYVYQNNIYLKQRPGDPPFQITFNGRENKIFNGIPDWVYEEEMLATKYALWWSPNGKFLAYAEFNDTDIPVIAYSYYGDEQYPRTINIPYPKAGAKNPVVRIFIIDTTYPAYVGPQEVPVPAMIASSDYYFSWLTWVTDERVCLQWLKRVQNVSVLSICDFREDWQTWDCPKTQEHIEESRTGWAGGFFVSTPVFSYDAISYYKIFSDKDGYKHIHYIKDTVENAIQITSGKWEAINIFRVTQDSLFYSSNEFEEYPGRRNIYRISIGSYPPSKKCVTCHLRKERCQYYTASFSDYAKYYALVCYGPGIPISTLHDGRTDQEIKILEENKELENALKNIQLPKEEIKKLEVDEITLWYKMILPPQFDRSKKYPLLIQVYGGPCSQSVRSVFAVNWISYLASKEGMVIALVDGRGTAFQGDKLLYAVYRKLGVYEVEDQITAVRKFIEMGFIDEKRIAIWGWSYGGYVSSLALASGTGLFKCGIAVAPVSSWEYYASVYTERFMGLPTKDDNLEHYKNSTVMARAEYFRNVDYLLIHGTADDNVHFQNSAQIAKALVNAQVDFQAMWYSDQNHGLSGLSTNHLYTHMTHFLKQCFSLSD

T2: human fibroblast activation protein (FAP) (human, UniProt Q12884 26-760)
T2 construct: also called human FAP; hFAP
T2 sequence: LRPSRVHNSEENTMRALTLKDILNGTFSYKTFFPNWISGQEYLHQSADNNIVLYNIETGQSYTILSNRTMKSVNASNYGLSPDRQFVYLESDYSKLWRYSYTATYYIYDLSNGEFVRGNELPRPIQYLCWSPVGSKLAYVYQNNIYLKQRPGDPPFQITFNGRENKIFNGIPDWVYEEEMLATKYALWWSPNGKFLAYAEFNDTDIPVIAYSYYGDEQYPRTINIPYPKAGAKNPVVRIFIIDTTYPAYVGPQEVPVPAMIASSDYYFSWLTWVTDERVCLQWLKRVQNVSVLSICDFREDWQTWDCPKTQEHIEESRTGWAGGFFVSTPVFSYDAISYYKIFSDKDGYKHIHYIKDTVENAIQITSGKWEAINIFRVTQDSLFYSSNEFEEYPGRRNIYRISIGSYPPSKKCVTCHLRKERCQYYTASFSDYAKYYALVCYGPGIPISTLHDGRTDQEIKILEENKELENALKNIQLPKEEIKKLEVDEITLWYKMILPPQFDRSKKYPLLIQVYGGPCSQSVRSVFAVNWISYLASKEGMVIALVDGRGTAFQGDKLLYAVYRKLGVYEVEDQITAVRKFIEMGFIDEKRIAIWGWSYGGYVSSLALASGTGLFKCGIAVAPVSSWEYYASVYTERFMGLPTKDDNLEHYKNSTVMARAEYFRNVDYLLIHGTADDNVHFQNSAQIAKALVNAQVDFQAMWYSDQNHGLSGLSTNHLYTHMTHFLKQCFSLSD


Assays:
human FAP [1] = molecular target: T1, human FAP; experiment: BLI click reaction with Tz-R3B23 on TCO-VHHs bound to target, span (Example 7, Table 18); details: for Span: signal difference vs assay buffer
Experimental: Next, Octet Streptavidin (SA) Biosensors were coated with 5 μg/mL biotinylated human FAP in assay buffer (HBS+0.5% BSA+0.1% Tween20) for 5 minutes. The sensors were then dipped in wells containing a 5 nM solution of the different VHHs (both TCO conjugated and unconjugated as control) for 20 minutes (association step) and further transferred to the assay buffer (dissociation step) for 30 minutes. After the dissociation phase, that simulates the lag time, the sensors were transferred to either a well containing 50 nM of a tetrazine-coupled, non-FAP binding R3B23 (Tz-R3B23) or to a well containing assay buffer as a control. This reaction was allowed to proceed for 20 minutes (experiment 1) or 30 minutes (experiment 2) after which the sensors were washed for 30 minutes in assay buffer. In the second experiment the TCO-VHHs were measured in duplicate (referred to as assay 1 and 2 of ‘experiment 2’ in the table below). Using the epitope binning function of ‘Octet Analysis Software’ we then determined the difference in signal between the VHHs incubated with Tz-R3B23 and the VHHs incubated with assay buffer. […] The span of unconjugated VHHs was considered as noise.

human FAP [2] = molecular target: T1, human FAP; experiment: BLI (Octet) binding kinetics pre- and post-TCO conjugation (Example 7, Table 17)
Experimental: Five VHHs binding the target (human FAP) with different dissociation rate constants were conjugated to TCO-NHS. Using the BLI technology on Octet system the binding kinetics towards human FAP were determined for each of the five VHHs pre- and post-TCO conjugation.

[3] = molecular target: T2, human fibroblast activation protein …; experiment: BLI (Octet), kinetics to human FAP, pre TCO conjugation
Experimental: Using the BLI technology on Octet system the binding kinetics towards human FAP were determined for each of the five VHHs pre- and post-TCO conjugation.

[4] = Experiment 1, click reaction with 50 nM Tz-R3B23 for 20 minutes
[5] = Experiment 2, 1st assay, click reaction with 50 nM Tz-R3B23 for 30 minutes
[6] = Experiment 2, 2nd assay, click reaction with 50 nM Tz-R3B23 for 30 minutes

Span (human FAP [1]; [4]) | Span (human FAP [1]; [5]) | koff (human FAP [2]; Post conjugation (TCO)) [s⁻¹] | kon (human FAP [2]; Post conjugation (TCO)) [M⁻¹ s⁻¹] | koff (human FAP [2]; Pre conjugation (TCO)) [s⁻¹] | kon (human FAP [2]; Pre conjugation (TCO)) [M⁻¹ s⁻¹] | Kd [3] [nM] | koff [3] [s⁻¹] | kon [3] [M⁻¹ s⁻¹] | Molecule | also measured
0.0082 | 0.0018 | 0.000123 | 746000 | 0.000197 | 2.4e+06 | – | – | – | VHH7: VHH, target FAP, SEQ ID NO 90 (protein) VHH: QVQLQESGGGLVQAGGSLRLSCTASGTFSGRNAMAWYRQAPGKRRELVAGIRSDDSTNYVDSVKGRFTISRDNAKNTVYLQMNSLRPEDTAVYYCNLWPPVIGAGFGSWGQGTQVTVSSAAAYPYDVPDYGSHHHHHH | –
0.0145 | 0.0186 | – | – | – | – | – | – | – | TCO-VHH7 (conjugate, cyclised or stapled) VHH: QVQLQESGGGLVQAGGSLRLSCTASGTFSGRNAMAWYRQAPGKRRELVAGIRSDDSTNYVDSVKGRFTISRDNAKNTVYLQMNSLRPEDTAVYYCNLWPPVIGAGFGSWGQGTQVTVSSAAAYPYDVPDYGSHHHHHH | Span (human FAP [1]; [6]): 0.0230
– | – | – | – | – | – | 0.0819 | 0.000197 | 2.4e+06 | VHH7 (VHH, Anti-FAP VHH, tested before TCO conjugation; also called unconjugated VHH7) VHH: QVQLQESGGGLVQAGGSLRLSCTASGTFSGRNAMAWYRQAPGKRRELVAGIRSDDSTNYVDSVKGRFTISRDNAKNTVYLQMNSLRPEDTAVYYCNLWPPVIGAGFGSWGQGTQVTVSS | –
– | – | – | – | – | – | 0.672 | 0.000679 | 1.01e+06 | VHH8 (VHH, Anti-FAP VHH, tested before TCO conjugation; also called unconjugated VHH8) VHH: QVQLQESGGGTVQPGGSLRLSCAASGISVSIASMAWYRQAPGKQRELVAGIISGGSTNYADSVKGRFTISRDNAKKVVLLQMNSLKPEDTAVYYCNTYPPFVGPGATATWGQGTQVTVSS | –
– | – | – | – | – | – | 0.453 | 0.0018 | 3.98e+06 | VHH9 (VHH, Anti-FAP VHH, tested before TCO conjugation; also called unconjugated VHH9) VHH: QVQLQESGGGLVQSGGSLRLSCVASGSISSINAMGWYRQAPGNKREWVAGITSGGSTNYADAVLGRFSIFRDNPKNTVYLQMNSLKPEDTAVYYCNTWPPSTFGSWGQGTQVTVSS | –
0.0015 | 0.0091 | – | – | – | – | – | – | – | TCO-VHH9: TCO conjugated VHH9 (FAP binding) (conjugate, cyclised or stapled) VHH: QVQLQESGGGLVQSGGSLRLSCVASGSISSINAMGWYRQAPGNKREWVAGITSGGSTNYADAVLGRFSIFRDNPKNTVYLQMNSLKPEDTAVYYCNTWPPSTFGSWGQGTQVTVSSAAAYPYDVPDYGSHHHHHH | Span (human FAP [1]; [6]): 0.0113; click reaction (span versus noise value) (human FAP [1]; experiment 1 (20 minutes Tz-R3B23)): no click reaction took place; click reaction (span versus noise value) (human FAP [1]; experiment 2 (30 minutes Tz-R3B23), both assays): just above the noise value
0.0040 | −0.0008 | 0.0012 | 1.26e+06 | 0.0018 | 3.98e+06 | – | – | – | VHH9: VHH, target FAP, SEQ ID NO 92 (protein) VHH: QVQLQESGGGLVQSGGSLRLSCVASGSISSINAMGWYRQAPGNKREWVAGITSGGSTNYADAVLGRFSIFRDNPKNTVYLQMNSLKPEDTAVYYCNTWPPSTFGSWGQGTQVTVSSAAAYPYDVPDYGSHHHHHH | –
– | – | – | – | – | – | 0.0482 | 8.52e-05 | 1.77e+06 | VHH1 (VHH, Anti-FAP VHH, tested before TCO conjugation; also called VHH VHH1; unconjugated VHH1) VHH: DVQLVESGGGLVQPGGSLRLSCVASGRLSSSNSMAWYRQVPGKRRELVAGITGGGETNYADFVGGRFTISRDNAKNGLYLQLNGLKPEDTAAYYCNFWPPLINYWGQGTQVTVSS | –
0.0237 | 0.0334 | – | – | – | – | – | – | – | TCO-VHH1: VHH1, functionalized with transcyclooctene (TCO) (conjugate, cyclised or stapled) VHH: DVQLVESGGGLVQPGGSLRLSCVASGRLSSSNSMAWYRQVPGKRRELVAGITGGGETNYADFVGGRFTISRDNAKNGLYLQLNGLKPEDTAAYYCNFWPPLINYWGQGTQVTVSS | Span (human FAP [1]; [6]): 0.0257
0.0089 | 0.0004 | 4.99e-05 | 694000 | 8.52e-05 | 1.77e+06 | – | – | – | VHH1: VHH, target FAP, SEQ ID NO 4 (protein, VHH1) VHH: DVQLVESGGGLVQPGGSLRLSCVASGRLSSSNSMAWYRQVPGKRRELVAGITGGGETNYADFVGGRFTISRDNAKNGLYLQLNGLKPEDTAAYYCNFWPPLINYWGQGTQVTVSS | –
– | – | – | – | – | – | 0.0551 | 0.000188 | 3.41e+06 | VHH6 (VHH, Anti-FAP VHH, tested before TCO conjugation; also called unconjugated VHH6) VHH: DVQLVESGGGLVQAGGSLRLSCAVSGSISSANSMGWYRQAPGKQRDVVAGLTTGGRSHYADSVKGRFTISRDNAKNTVYLQMNSLKAEDTAVYYCNLWPPVQGYWGQGTQVTVSS | –
0.0021 | 0.0017 | 0.000157 | 1.07e+06 | 0.000188 | 3.41e+06 | – | – | – | VHH6: VHH, target FAP, SEQ ID NO 89 (protein) VHH: DVQLVESGGGLVQAGGSLRLSCAVSGSISSANSMGWYRQAPGKQRDVVAGLTTGGRSHYADSVKGRFTISRDNAKNTVYLQMNSLKAEDTAVYYCNLWPPVQGYWGQGTQVTVSS | –
0.0096 | 0.0028 | 0.000559 | 833000 | 0.000679 | 1.01e+06 | – | – | – | VHH8: VHH, target FAP, SEQ ID NO 91 (protein) VHH: QVQLQESGGGTVQPGGSLRLSCAASGISVSIASMAWYRQAPGKQRELVAGIISGGSTNYADSVKGRFTISRDNAKKVVLLQMNSLKPEDTAVYYCNTYPPFVGPGATATWGQGTQVTVSSAAAYPYDVPDYGSHHHHHH | span of unconjugated VHHs (noise) (human FAP [1]; both experiments): the highest
0.0224 | 0.0218 | – | – | – | – | – | – | – | TCO-VHH8 (conjugate, cyclised or stapled) VHH: QVQLQESGGGTVQPGGSLRLSCAASGISVSIASMAWYRQAPGKQRELVAGIISGGSTNYADSVKGRFTISRDNAKKVVLLQMNSLKPEDTAVYYCNTYPPFVGPGATATWGQGTQVTVSSAAAYPYDVPDYGSHHHHHH | Span (human FAP [1]; [6]): 0.0341

Reference: patent publication US20250122304A1, “PRE-TARGETING” (Precirix N.V., priority 2022, published 2025)
